The target of this data set is T1, rYeiE (YeiE-Strep-tag II) (Salmonella enterica serotype Typhimurium ATCC14028s) (UniProt Q8ZNK8).
T1 sequence: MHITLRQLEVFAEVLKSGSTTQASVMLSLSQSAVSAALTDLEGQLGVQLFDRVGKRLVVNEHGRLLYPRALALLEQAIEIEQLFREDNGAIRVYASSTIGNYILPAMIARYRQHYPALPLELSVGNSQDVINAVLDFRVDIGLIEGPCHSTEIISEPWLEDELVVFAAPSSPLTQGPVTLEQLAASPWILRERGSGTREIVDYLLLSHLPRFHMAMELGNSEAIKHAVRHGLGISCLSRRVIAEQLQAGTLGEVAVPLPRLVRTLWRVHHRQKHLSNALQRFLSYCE
Description: EMSA. The note with it: 150 mM KCl, 0.1 mM DTT, 0.1 mM EDTA, 10 mM Tris pH 7.4, 20 min at room temperature; 6% native PAGE, SYBR Green.

Take “GTTGAACCGCTTTTCAGTACTTCAGCAAACACTTCAAGTTGTCGTAGCGTAATATGCATAGTCGTATCCCACCGATAGCGTTTCACTTACCACTTATAAAGATTAATTATAAATATATAATCAATTTTATTTTTAAACCAGATCACCGTAACCTTATTGTCCATATACAGGAGAAGGTTATGACAGAACTCACCTTGCAGAATCATCGTCGTACAATGTGGCATTTTATACCGGGGCTCGCTCTGAGCGCCGTCATTACAGGAGTCGCCCTGTGGGGCGGCGCTATCCCTGCCGTTGCA (double strand) [PyeiE]”: the binding result is on record as “binds”.
